In PMC4188072, “Structure of a short-chain dehydrogenase/reductase (SDR) within a genomic island from a clinical strain of Acinetobacter baumannii” (Acta Crystallographica. Section F, Structural Biology …, 2014):

Target: the molecule itself
Assay: SEC; Superdex G200 10/300 column, 50 mM HEPES buffer pH 7.5, 300 mM NaCl, 5% (v/v) glycerol; native mass 120 kDa against a 30 kDa band on SDS-PAGE

B1: SDR-WM99c short-chain dehydrogenase/reductase from Acinetobacter baumannii WM99c (enzyme, A. baumannii (strain WM99c))
chain: MNIFDVKDKYILITGASSGLGHHIAELFAKEGANIVICARRLERLKELESHIKNEYGVQVYTFALDVNDRSAVKDMLSSLEAEGVTIDVLINNAGVSDTKRFLDYNDEDWDKIVDTNLKAPWQCAQEVVQHMIKAERKGSIINITSILSQSTNLGVSPYCASKAGLRHLTEVMAVELARFGINVNAIAPGYMITEINEEYLTSEVGQQLLKKIPTRKFVEFDDLNGPLLLLASQAGQGITGIEIKVDGGHSAAPI
modifications: selenomethionine (cells grown in selenomethionine medium; Se sites located in the crystal)
notes: SDR-WM99c, hypothetical protein encoded in genomic island GI_12 of A. baumannii strain WM99c; total chain length 255 residues; also called SDR-WM99c dehydrogenase; source: E. coli BL21 (DE3) pLysS, grown in selenomethionine medium, purified (Ni-NTA); not shown: His6, N-terminal, kept
stoichiometry N: 4
